T1: hZFY full-length (13-finger construct) (human, UniProt P08048 408-768)
T1 sequence: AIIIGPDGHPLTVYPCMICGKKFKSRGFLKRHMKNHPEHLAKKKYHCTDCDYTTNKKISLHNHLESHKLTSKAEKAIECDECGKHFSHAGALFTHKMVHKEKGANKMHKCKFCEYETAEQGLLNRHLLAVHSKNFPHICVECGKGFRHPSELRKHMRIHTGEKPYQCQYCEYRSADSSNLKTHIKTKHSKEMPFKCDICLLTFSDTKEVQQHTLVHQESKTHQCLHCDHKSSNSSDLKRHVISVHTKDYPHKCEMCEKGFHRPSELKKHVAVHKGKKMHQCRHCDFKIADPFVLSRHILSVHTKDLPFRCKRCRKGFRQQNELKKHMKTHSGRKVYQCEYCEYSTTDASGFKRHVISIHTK

B1: S.S.S. (long) FAM probe (dsDNA)
DNA 1: ACCTGGCCTAGTCGTTTTTGAGATCTTCATCAATTGCCGCATC
DNA 2: GATGCGGCAATTGATGAAGATCTCAAAAACGACTAGGCCAGGT
B2: S.S.N. FAM probe (dsDNA)
DNA 1: ACCTGGCCTAGTCGTTGCCCAGAT
DNA 2: ATCTGGGCAACGACTAGGCCAGGT

Legend:
[1] = biological target: T1, hZFY full-length (13-finger construct); test: fluorescence anisotropy dissociation
[2] = biological target: T1, hZFY full-length (13-finger construct); test: fluorescence anisotropy dissociation; remark: listed apart in the source

Row | Binder | binding result [1] | binding signal [2]
1 | B1 | binds | 
2 | B2 |  | ~2 fold shorter lifetime than SSS

Source: publication doi:10.1101/637298
